Laboratory results published in article PMC9082959, “Mechanism of Assembly of the Non-Covalent Spectrin Tetramerization Domain from Intrinsically Disordered Partners” (Journal of molecular biology, 2013).
Positions count from the first letter of the chain named.

What was measured:
Assay in all cases: ITC; β16β17 at 25–50 μM in the cell titrated with 15–20 injections to 2–2.5 eq of α0α1; one-site binding model; PBS (50 mM sodium phosphate, 150 mM NaCl, pH 7.04), 25 °C; mutants only against the wild-type partner
Details in all cases: both partners purified
β16β17 V41A = target: T1, β16β17 V41A (human, UniProt P11277 1898-2083, V2044A)
T1 construct: erythrocyte β-spectrin, human, residues 1898-2083 (β16β17); mutant of m2; also called V2044A; source: E. coli C41(DE3), purified (Ni2+ agarose, thrombin cleavage, gel filtration)
T1 sequence (looked up): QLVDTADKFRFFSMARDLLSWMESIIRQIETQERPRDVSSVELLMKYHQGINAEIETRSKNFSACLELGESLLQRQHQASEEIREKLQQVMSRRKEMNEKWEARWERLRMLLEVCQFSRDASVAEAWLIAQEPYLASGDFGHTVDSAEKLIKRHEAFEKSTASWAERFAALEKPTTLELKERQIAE

β16β17 A18G = target: T2, β16β17 A18G (human, UniProt P11277 1898-2083, A2021G)
T2 construct: erythrocyte β-spectrin, human, residues 1898-2083 (β16β17); mutant of m2; also called A2021G; source: E. coli C41(DE3), purified (Ni2+ agarose, thrombin cleavage, gel filtration)
T2 sequence (looked up): T1 sequence (looked up) with A124G, A147V

β16β17 F62A = target: T3, β16β17 F62A (human, UniProt P11277 1898-2083, F2065A)
T3 construct: erythrocyte β-spectrin, human, residues 1898-2083 (β16β17); mutant of m2; also called F2065A; source: E. coli C41(DE3), purified (Ni2+ agarose, thrombin cleavage, gel filtration)
T3 sequence (looked up): T1 sequence (looked up) with A147V, F168A

β16β17 Y28A = target: T4, β16β17 Y28A (human, UniProt P11277 1898-2083, Y2031A)
T4 construct: erythrocyte β-spectrin, human, residues 1898-2083 (β16β17); mutant of m2; also called Y2031A; source: E. coli C41(DE3), purified (Ni2+ agarose, thrombin cleavage, gel filtration)
T4 sequence (looked up): T1 sequence (looked up) with Y134A, A147V

β16β17 Q25A = target: T5, β16β17 Q25A (human, UniProt P11277 1898-2083, Q2028A)
T5 construct: erythrocyte β-spectrin, human, residues 1898-2083 (β16β17); mutant of m2; also called Q2028A; source: E. coli C41(DE3), purified (Ni2+ agarose, thrombin cleavage, gel filtration)
T5 sequence (looked up): T1 sequence (looked up) with Q131A, A147V

β16β17 F62L = target: T6, β16β17 F62L (human, UniProt P11277 1898-2083, F2065L)
T6 construct: erythrocyte β-spectrin, human, residues 1898-2083 (β16β17); mutant of m2; also called F2065L; source: E. coli C41(DE3), purified (Ni2+ agarose, thrombin cleavage, gel filtration)
T6 sequence (looked up): T1 sequence (looked up) with A147V, F168L

Ka (β16β17 V41A): 420000 M⁻¹
Ka (β16β17 A18G): 130000 M⁻¹
Ka (β16β17 F62A): 13000 M⁻¹
Ka (β16β17 Y28A): 180000 M⁻¹
Ka (β16β17 Q25A): 120000 M⁻¹
Ka (β16β17 F62L): 100000 M⁻¹
B1: α0α1 (erythrocyte α-spectrin residues 2–163), wild type (domain or fragment, human, UniProt P02549 2-163, looked up)
chain: EQFPKETVVESSGPKVLETAEEIQERRQEVLTRYQSFKERVAERGQKLEDSYHLQVFKRDADDLGKWIMEKVNILTDKSYEDPTNIQGKYQKHQSLEAEVQTKSRLMSELEKTREERFTMGHSAHEETKAHIEELRHLWDLLLELTLEKGDQLLRALKFQQY
notes: synthetic gene (GenScript) in a modified pRSETA plasmid; also called α1α0; source: E. coli C41(DE3), purified (Ni2+ agarose, thrombin cleavage, gel filtration)
